Measured values as given in patent US11833215B2, “CKIT antibody drug conjugates” (Novartis AG, priority 2014, dated 2023).
“Also recorded” adds a separate entry of the source.

Assays:
Format in all cases: cell-based
[1] = system: cKIT on normal human CD34+ bone marrow cells; assay: cKIT receptor internalization on bone marrow cells by flow cytometry; settings: 10 μg/ml, 37° C.
Method: In another internalization experiment, the impact of NEG085 on cKIT receptor levels was evaluated on human bone marrow cells. Normal human CD34+ bone marrow cells (All Cells, Cat #ABM022F, Emeryville, CA) were thawed and washed with 10 mL of StemPro®-34 SFM medium (Gibco, Life Technologies, Carlsbad, CA). Cells were resuspended in 1.25 mL of StemPro-34 SFM medium at 4×10^5 cells/mL and split equally into two tubes. One tube was untreated, and the other was treated with 10 μg/ml of NEG085 and both were incubated at 37° C., 5% CO2. 100 μL of cell suspension was collected at each timepoint (0, 15, 30, 60, 120, and 240 min) from each condition, and placed into an ice cold collection tube to cease internalization. Cells were washed with 3 mL of ice-cold FBS stain buffer and resuspended in 100 μL of FBS stain buffer. […] of 104D2-BV421 (mouse anti-human IgG1 k, Biolegend, San Diego CA) was added to each tube and incubated on ice for 1 hour. Following another wash with FBS stain buffer, total cKIT receptors were measured by flow cytometry by assessing the mean fluorescence intensity of BV421 on a FACS Canto II® (BD Biosciences, San Jose, CA).

primary human mast cells = assay: mast cell degranulation (β-hexosaminidase release); settings: 0.05-100 nM, 90 min
Method: Primary human mast cells were cultured from peripheral human blood according to the methods described by Saito et al., (supra). Mast cells, which had been in liquid culture for a minimum of one week, were pre-treated with 5% Ag-specific IgE JW8 (in-house batch ACE 27283), 95% non-specific monoclonal human IgE (Abbiotec, Cat #12030635, San Diego, CA) and 10 ng/mL rhIL-4 (R&D Systems Cat #204-IL, Minneapolis, MN) for 5 days at 37° C. The cells were then incubated with increasing concentrations (0.05-100 nM) of an isotype control IgG, the anti-human cKIT Abs, 20376 and NEG085, the anti-IgE Ab, LE27, or the NIP(5)BSA antigen, in the presence of a goat anti-human IgG (H+L) Fc-specific Ab (Jackson ImmunoResearch, Cat #109-005-008-JIR, West Grove, PA) for 90 min at 37° C. Cells were then centrifuged and the supernatants were transferred into 96-well black-walled plates prior to the addition of the β-hexosaminidase substrate. Following 90 min incubation at 37° C., the reaction was stopped by the addition of tris-base (Sigma, Cat #T1503-500G, pH 12, St. Louis, MO) and the fluorescence intensity was recorded on the Envision® plate reader.

[2] = system: surface cKIT on GIST-T1 cells; assay: cKIT Ab-mediated internalization by flow cytometry; settings: 10 μg/ml, 37° C., 30 min to 24 hr
Method: The kinetics of cKIT antibody mediated internalization was evaluated by treating with antibody in a cell monolayer using a temperature shift method and flow cytometry readout. GIST-T1 (kindly provided by Dr. Takahiro Taguchi, Kochi U., Japan) cells were seeded at 2.5×10E5 cells/well in five 12-well tissue culture treated plates (BD Falcon 353043). The cells were incubated in a tissue culture incubator at 37° C. with 5% CO2 overnight. The following day medium was removed and replaced with 450 μl fresh medium. The cKIT antibodies NEG085, 20376 and an isotype control were prepared at 10×10 μg/ml concentration in appropriate cell culture medium and 50 μl of test cKIT antibody or isotype was added per well with final concentration of 10 μg/ml. All cells were incubated for 1 hr on ice, followed by two washes with 1 mL 1× Phosphate buffered saline (PBS) and resuspended in 500 μl cell culture medium. […] The following day, all samples were analyzed using the BD FACSCanto II 0 equipment using a HTS system (BD Biosciences, San Jose, CA). Samples were analyzed with FlowJo software to obtain the Geometric Mean values of fluorescence for the Phycoerythrin channel, FIG. 4A is a plot of % of initial cell surface binding vs Geometric Mean-PE 4° C. binding/Geometric Mean-PE timepoint at 37° C.×100.

Uke-1 cells = assay: ADCC activity in vitro (Calcein release, NK3.3 effector cells); settings: unconjugated IgG1, effector to target ratio 20 to 1
Method: The ability of the unconjugated anti-cKIT antibodies (NEG085, 20376) to mediate antibody dependent cellular cytotoxicity was determined versus Uke-1 cells (target cells; generously provided by Professor Walter Fiedler, University Hospital Eppendorf, Hamburg, Germany) in co-incubation with NK3.3 cells (killer cells or effector cells; kindly provided by Jacky Kornbluth from Saint Louis University). […] In order to calculate the antibody specific lysis of the target cells, a parallel incubation of target cells only without antibody or effector cells served as a baseline and negative control, whereas the positive control or maximal lysis or hundred percent specific lysis was determined by lysis of target cells only with a 1% Triton-X 100 solution. […] Following a co-incubation of target and effector cells, the microtiterplate was centrifuged and an aliquot of the supernatant fluid was transferred to another microtiterplate (96 well, flat-bottomed, black with clear bottom; (Corning Costar, catalog #3904, Tewksbury, MA) and the concentration of free Calcein in solution was determined with a fluorescence counter (Victor 3 ® multilabel counter, Perkin Elmer, Waltham, MA).

B1: NEG085: anti-cKIT antibody of Table 3, VH SEQ ID NO 82, VL SEQ ID NO 91 (antibody, listed as Homo sapiens, V domains shown)
VH: EVQLVESGGGLVQPGGSLRLSCAASGFAFSGYYMAWVRQAPGKGLEWVANINYPGSSTYYLDSVKGRFTISRDNAKNSLYLQMNSLRAEDTAVYYCARGDYYGTTYWYFDVWGQGTTVTVSS
VL: DIQMTQSPSSLSASVGDRVTITCRASQSISSYLNWYQQKPGKAPKLLIYYTSRLQSGVPSRFSGSGSGTDFTLTISSLQPEDFATYYCQQGRRLWSFGGGTKVEIK
time of bulk of cKIT internalization [1]: 15 min | internalization of cKIT on human bone marrow cells ([1]; 0-240 min): mediate rapid internalization; also recorded: rapidly internalized | degranulation of primary human mast cells (primary human mast cells): do not mediate primary human mast cell degranulation; also recorded: do not induce mast cell degranulation | internalization of surface cKIT on GIST-T1 cells [2]: mediate rapid internalization; also recorded: rapidly internalized | ADCC killing of target cells (Uke-1 cells): do not induce ADCC; also recorded: not able to induce ADCC
